According to publication PMC5437177:

Each sequence was assayed against T1, ABI5 (Arabidopsis thaliana) (UniProt Q9SJN0) (assay: EMSA). Settings: 25 mM HEPES pH 8.0, 40 mM KCl, 5 mM MgCl2, 1 mM DTT, 1 mM EDTA, 8% glycerol, 1 ug/uL poly(dI-dC), 30 min room temperature; 5% native PAGE at 4 C.
T1 sequence: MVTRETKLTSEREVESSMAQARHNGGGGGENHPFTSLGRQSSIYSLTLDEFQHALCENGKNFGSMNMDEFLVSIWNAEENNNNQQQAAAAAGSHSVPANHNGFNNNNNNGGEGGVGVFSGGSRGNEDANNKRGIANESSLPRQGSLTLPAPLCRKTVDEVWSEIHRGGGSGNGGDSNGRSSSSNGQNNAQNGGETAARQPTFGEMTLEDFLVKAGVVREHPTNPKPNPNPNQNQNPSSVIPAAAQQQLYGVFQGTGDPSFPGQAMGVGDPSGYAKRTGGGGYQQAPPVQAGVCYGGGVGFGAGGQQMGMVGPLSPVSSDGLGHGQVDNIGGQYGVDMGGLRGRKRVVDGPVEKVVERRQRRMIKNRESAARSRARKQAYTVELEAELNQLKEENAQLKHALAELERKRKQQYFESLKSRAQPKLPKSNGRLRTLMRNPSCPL

Sequence | binding
TCCTGAAATGGATCAACAATTGTCTAATTATGGTATAGTATCTGGCGAAATCAAAGACGATATCATCCACACGTAATTAGTTTGACTATTAATACGAGGATTATCATTTGGATAAGGATTAACAAAGACAAAACACATACGTGTTTTGGTGTTGAGCTAAAATAAGATATTTTGGCTCTCGCTATAAA (double strand) [pCAT1 wild type probe (-296/-108)] | binds
TCCTGAAATGGATCAACAATTGTCTAATTATGGTATAGTATCTGGCGAAATCAAAGACGATATCATCCACACGTAATTAGTTTGACTATTAATACGAGGATTATCATTTGGATAAGGATTAACAAAGACAAAACACATTTTTGTTTTGGTGTTGAGCTAAAATAAGATATTTTGGCTCTCGCTATAAA (double strand) [pCAT1 box2 mutation probe] | binds more weakly
TCCTGAAATGGATCAACAATTGTCTAATTATGGTATAGTATCTGGCGAAATCAAAGACGATATCATCCACTTTTAATTAGTTTGACTATTAATACGAGGATTATCATTTGGATAAGGATTAACAAAGACAAAACACATACGTGTTTTGGTGTTGAGCTAAAATAAGATATTTTGGCTCTCGCTATAAA (double strand) [pCAT1 box1 mutation probe] | binds more weakly
